In experiment [1] the target is Human IgG (Sigma-Aldrich Corporation) (human). Kind of experiment: Biacore SPR; protein on NTA chip, human IgG injected. Background: SPR reads the build-up and loss of mass on a sensor chip optically.
Experiment [2] shares this target. Kind of experiment: Biacore SPR; protein on NTA chip, human IgG injected; reference repeated from Table 2.
Experiment [3] has the same target. Kind of experiment: human IgG captured on the protein-immobilized Amino-Cellulofine carrier, released with 0.1 M acetic acid, A280.
Experiment [4] has the same target. Kind of experiment: Biacore SPR; protein on NTA chip, human IgG injected; reference repeated from Table 3.

B1: pPG (SEQ ID NO: 2) (designed binder)
chain: AYRLILNGRTLRGETTTEAVDAATAERVFRQYANDNGVDGEWTYDDATRTFTVTERPEVIDASELTPAVTGGGGCADDDDDDHHHHHH
The term Kd denotes the equilibrium constant for the complex coming apart. By koff is commonly meant a measure of how fast the partners let go of each other. Broadly, the kon is the second-order rate constant of association. Lower therefore signals slow association. In the case of B1, in experiment [1], the Kd was determined as 384 pM, the koff amounted to 0.000154 s⁻¹ and the on-rate constant (kon) was determined as 401000 M⁻¹ s⁻¹. In experiment [2], this molecule gave a Kd of 384 pM, a koff of 0.000154 s⁻¹ and a kon of 401000 M⁻¹ s⁻¹.

B2: Immobilization carrier SEQ ID NO: 6 (←SEQ ID NO: 3) (designed binder)
chain: ATIRANLIYADGRTQTAEFRGTFEEATAEAYRYADLLARENGRYTVDVADRGYTLNIRFAGGGGG
modifications: carboxy terminus bound to a primary amino group on Amino-Cellulofine via an amide bond
B2: the Amount of bound human IgG (mg/ml carrier) in experiment [3] turned out to be 3.

B3: Protein expressed from pGG3T (SEQ ID NO: 25 repeated three times, n = 3) (designed binder)
chain: AYRLILNGRTLRGETTTEAVDAATAERVFRQYANDNGVDGEWTYDDATRTFTVTERPEVIDASELTPAVTPGAYRLILNGRTLRGETTTEAVDAATAERVFRQYANDNGVDGEWTYDDATRTFTVTERPEVIDASELTPAVTPGAYRLILNGRTLRGETTTEAVDAATAERVFRQYANDNGVDGEWTYDDATRTFTVTERPEVIDASELTPAVTPGGGGGCADDDDDDHHHHHH
With B3, in experiment [1], the Kd stood at 68 pM, the off-rate (koff) is 7.63e-05 s⁻¹ and the kon came out at 1.12e+06 M⁻¹ s⁻¹.

B4: pPL (SEQ ID NO: 3) (designed binder)
chain: ATIRANLIYADGRTQTAEFRGTFEEATAEAYRYADLLARENGRYTVDVADRGYTLNIRFAGGGGGCADDDDDDHHHHHH
In experiment [1], B4 registered a Kd of 2060 pM, a koff of 0.000312 s⁻¹ and a kon of 151000 M⁻¹ s⁻¹. In experiment [4], the Kd stood at 2060 pM, the koff amounted to 0.000312 s⁻¹ and the kon was determined as 151000 M⁻¹ s⁻¹.

B5: Immobilization carrier SEQ ID NO: 5 (←SEQ ID NO: 2) (designed binder)
chain: AYRLILNGRTLRGETTTEAVDAATAERVFRQYANDNGVDGEWTYDDATRTFTVTERPEVIDASELTPAVTGGGG
modifications: carboxy terminus bound to a primary amino group on Amino-Cellulofine via an amide bond
Consider B5, for which the Amount of bound human IgG (mg/ml carrier) in experiment [3] stood at 10.

B6: Protein expressed from pLL3T (SEQ ID NO: 26 repeated three times, n = 3) (designed binder)
chain: ATIRANLIYADGRTQTAEFRGTFEEATAEAYRYADLLARENGRYTVDVADRGYTLNIRFAPGATIRANLIYADGRTQTAEFRGTFEEATAEAYRYADLLARENGRYTVDVADRGYTLNIRFAPGATIRANLIYADGRTQTAEFRGTFEEATAEAYRYADLLARENGRYTVDVADRGYTLNIRFAPGGGGGCADDDDDDHHHHHH
In experiment [1], B6 registered an equilibrium dissociation constant (Kd) of 788 pM, a koff of 0.000237 s⁻¹ and a kon of 301000 M⁻¹ s⁻¹.
